Peptide exchange yield data for one molecule are collected here from US20170253633A1.

This test addresses HLA-A*02:01 (human). Nature of the test: UV-ligand exchange + anti-b2m ELISA; ++++ = peptide exchange yield >75%. On the technique in general: In an ELISA, binding on a coated surface is turned into a signal by an enzyme label.

On to KLLETKWTL (modifications not checked) […], for which the peptide exchange yield is above 75%.
